Laboratory results reported in the supplement of paper PMC9732359.
± gives the uncertainty stated by the source.

Assay: protein stability index of a GFP-peptide fusion (yeast GPS) (PSI 1-4); higher = more stable; sorted into four equal gates, so the index is relative within each strain
Settings: pdr5∆
Procedure, shortened: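 For each peptide, the protein stability index sums the read frequency in every gate after multiplying it by the gate number. Read frequencies came from plasmids that were PCR-amplified from each gate and Illumina-sequenced, with reads assigned to strains by barcodes. The gates were four equal bins of GFP/Cherry fluorescence ratio applied to mid-log yeast in leucine-free medium carrying a pooled library of tiled 17-residue yeast protein peptides fused downstream of GFP on a Cherry-expressing plasmid.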

Row | Sequence | protein stability index
1 | KKVNGTSYKKWSFDLPE [PRP8] | 2.36 ± 0.084
2 | KKVVLRLECVKCKTRAQ [RPL42A] | 2.03 ± 0.095

Same assay, conditions: san1∆

Row | Sequence | protein stability index
3 | KGHKFNNTKAGRRKTWK [RPL15A] | 2.8 ± 0.093
4 | KGSSLASAASEAIRDPK [SSN8] | 2.65 ± 0.065
5 | KGTNDEGTSISVHLIEC [YCS4] | 2.69 ± 0.11
6 | KGVTEKDAVDYSKIPNI [RRP6] | 3.25 ± 0.08
7 | KHYKNIPRNSPLSDLKK [RPC82] | 2.59 ± 0.19
8 | KIADNISKDENEDQFLE [YDL116W/NUP84] | 2.86 ± 0.13
9 | KIDGNPDELIKAGVEAI [PRE5] | 3.29 ± 0.083
10 | KIDLASGKITDFIKFDA [RPS4A] | 3.13 ± 0.07
11 | KIESSVESQFSAGRLYA [RPS8A] | 1.96 ± 0.15
12 | KIFIAVVWYQRLTMGNV [RRI2] | 1.28 ± 0.082
13 | KIFQTTPEKDLFIGLFT [YCS4] | 2.41 ± 0.11
14 | KIFVETKFSKLIGRPPL [FAS1] | 2.35 ± 0.11
15 | KIITSRPLQKIMLLQLE [SIN4] | 2 ± 0.071
16 | KIKPYVRSFSKALDELK [LRP1] | 2.35 ± 0.047
17 | KIMPKDILQITKKPLMV [SIR4] | 2.32 ± 0.1
18 | KIRCFRYISTLTLYLFQ [IRR1] | 1.64 ± 0.15
19 | KITSPIRSVALNDSNVK [RRP42] | 2.59 ± 0.1
20 | KIYINLALGSHNKLIQF [SSN2] | 2.13 ± 0.11
21 | KKAFTSYDRTLLIADSR [RPS16A] | 1.9 ± 0.079
22 | KKASEISVSSRSDREYP [SRP14] | 2.99 ± 0.1
23 | KKCHRLLWTPKKLEITS [RPR2] | 2.59 ± 0.038
24 | KKDVEKELPDKVEKVVK [SNF2] | 3.39 ± 0.099

Row | Sequence | protein stability index
25 | KKEEEEQLSEEDAKLKT [RPN1] | 3.34 ± 0.11
26 | KKEEKLNIGKNFAHSDS [SIR4] | 3.12 ± 0.033
27 | KKEENETISNVAKTAPN [SNF2] | 2.52 ± 0.1
28 | KKEKLDSGEVDADGDID [DPB4] | 3.29 ± 0.12
29 | KKEKLKQENSTLLKKAN [RPC82] | 2.71 ± 0.12
30 | KKFGGKGARSRFQKSYR [RPS16A] | 3.27 ± 0.072
31 | KKIFGTGKRLAKKVARR [RPS24A] | 3.31 ± 0.039
32 | KKIIKCDEHMGLSLAGL [PRE5] | 3.15 ± 0.075
33 | KKIMDETPSRLLLSPDQ [ITC1] | 3.21 ± 0.078
34 | KKKAFTKYSAKYAQDGA [RPL3] | 3.1 ± 0.054
35 | KKLSINSAARNIQHLLY [PRE7] | 2.81 ± 0.044
36 | KKMGVPYAIIKGKARLG [RPL8B] | 2.11 ± 0.17
37 | KKMVYVLDSMTKEELES [SRP54] | 2.92 ± 0.091
38 | KKNIDYQNRSTRSQFCL [RRI1] | 2.88 ± 0.034
39 | KKNRDKKIFGTGKRLAK [RPS24A] | 3.291 ± 0.028
40 | KKPLSMALNKVLITDHI [CDC53] | 2.18 ± 0.05
41 | KKRNPSKQNGSKFHFSW [PRP28] | 2.52 ± 0.052
42 | KKRRGSRIYKTIKVAGT [SNU114] | 1.61 ± 0.069
43 | KKSGSLTFNSKNIQSKD [FAS2] | 3.26 ± 0.13
44 | KKVNGTSYKKWSFDLPE [PRP8] | 2.25 ± 0.1
45 | KKVVLRLECVKCKTRAQ [RPL42A] | 2.4 ± 0.16

Same assay, conditions: ubr1∆

Row | Sequence | protein stability index
46 | KGHKFNNTKAGRRKTWK [RPL15A] | 3.1 ± 0.1
47 | KGSSLASAASEAIRDPK [SSN8] | 2.99 ± 0.049
48 | KGTNDEGTSISVHLIEC [YCS4] | 3.2 ± 0.059
49 | KGVTEKDAVDYSKIPNI [RRP6] | 3.3 ± 0.069
50 | KHYKNIPRNSPLSDLKK [RPC82] | 2.97 ± 0.083
51 | KIADNISKDENEDQFLE [YDL116W/NUP84] | 3.33 ± 0.1
52 | KIATRGVMLWKEFDETI [FAS1] | 2.94 ± 0.15
53 | KIDGNPDELIKAGVEAI [PRE5] | 3.36 ± 0.092
54 | KIDLASGKITDFIKFDA [RPS4A] | 3.35 ± 0.082
55 | KIESSVESQFSAGRLYA [RPS8A] | 2.77 ± 0.13
56 | KIFIAVVWYQRLTMGNV [RRI2] | 1.27 ± 0.036
57 | KIFQTTPEKDLFIGLFT [YCS4] | 2.58 ± 0.066
58 | KIFVETKFSKLIGRPPL [FAS1] | 1.79 ± 0.059
59 | KIITSRPLQKIMLLQLE [SIN4] | 1.63 ± 0.044
60 | KIKPYVRSFSKALDELK [LRP1] | 2.68 ± 0.027
61 | KIMPKDILQITKKPLMV [SIR4] | 2.56 ± 0.09
62 | KIRCFRYISTLTLYLFQ [IRR1] | 1.51 ± 0.14
63 | KITSPIRSVALNDSNVK [RRP42] | 2.94 ± 0.078
64 | KIYINLALGSHNKLIQF [SSN2] | 2.22 ± 0.071
65 | KKAFTSYDRTLLIADSR [RPS16A] | 2.24 ± 0.059
66 | KKASEISVSSRSDREYP [SRP14] | 2.87 ± 0.082
67 | KKCHRLLWTPKKLEITS [RPR2] | 2.34 ± 0.031

Row | Sequence | protein stability index
68 | KKDVEKELPDKVEKVVK [SNF2] | 3.34 ± 0.089
69 | KKEEEEQLSEEDAKLKT [RPN1] | 3.06 ± 0.14
70 | KKEEKLNIGKNFAHSDS [SIR4] | 3.11 ± 0.037
71 | KKEENETISNVAKTAPN [SNF2] | 2.94 ± 0.047
72 | KKEKLDSGEVDADGDID [DPB4] | 3.36 ± 0.11
73 | KKEKLKQENSTLLKKAN [RPC82] | 2.85 ± 0.075
74 | KKFGGKGARSRFQKSYR [RPS16A] | 3.32 ± 0.079
75 | KKIFGTGKRLAKKVARR [RPS24A] | 3.42 ± 0.039
76 | KKIIKCDEHMGLSLAGL [PRE5] | 2.94 ± 0.076
77 | KKIMDETPSRLLLSPDQ [ITC1] | 3.33 ± 0.041
78 | KKKAFTKYSAKYAQDGA [RPL3] | 3.04 ± 0.032
79 | KKLSINSAARNIQHLLY [PRE7] | 2.8 ± 0.056
80 | KKMGVPYAIIKGKARLG [RPL8B] | 3.41 ± 0.28
81 | KKMVYVLDSMTKEELES [SRP54] | 3.04 ± 0.069
82 | KKNIDYQNRSTRSQFCL [RRI1] | 3.079 ± 0.026
83 | KKNRDKKIFGTGKRLAK [RPS24A] | 3.26 ± 0.033
84 | KKPLSMALNKVLITDHI [CDC53] | 2.12 ± 0.028
85 | KKRNPSKQNGSKFHFSW [PRP28] | 2.49 ± 0.038
86 | KKRRGSRIYKTIKVAGT [SNU114] | 1.8 ± 0.043
87 | KKSGSLTFNSKNIQSKD [FAS2] | 3.27 ± 0.075
88 | KKVNGTSYKKWSFDLPE [PRP8] | 3.35 ± 0.12
89 | KKVVLRLECVKCKTRAQ [RPL42A] | 2.09 ± 0.047
